According to the supplement of paper PMC9170038:

System: MS2 coat protein
Test: apparent KD of MS2 coat protein; designed switch direction (-1 OFF switch, 1 ON switch): -1; higher = weaker reporter binding
How it was run: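 SNAP-549-labelled MS2 coat protein was titrated, doubling from 0.7 or 1.5 nM to 3 µM, over designed RNA switches transcribed on Illumina chips by stalled E. coli RNA polymerase. Runs were done without input, with 200 uM small-molecule ligand, or with an oligonucleotide input. Apparent KD is the per-design median over clusters of curve-fitted normalised fluorescence.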

[1] = Eterna round: R95, input ligand: microRNA oligo, concentration not stated

Row | Sequence | apparent KD of MS2 coat protein (input ligand: FMN 200 uM) | apparent KD of MS2 coat protein (input ligand: none) | apparent KD of MS2 coat protein [1] | apparent KD of MS2 coat protein (Eterna round: R95, input ligand: FMN 200 uM) | apparent KD of MS2 coat protein (Eterna round: R95, input ligand: none)
1 | GGAAGGUGAGGAUAUACUAAGCCGGAAACGGCAGGUGAGAGACAUGAGGAUCACCCAUGUAGAAGGCACGGAGA [AK-MS2ROC-r4-exclusion2-17] (Eterna round: R97, puzzle: Exclusion 2) | 291 nM | 85.5 nM |  |  | 
2 | GGACAGGGAGGAUAUACUUGAGGAUCACCCAAGUCGUAUAAUCGAUGAACACGCCGAAGUAGAAGGCCCAAAAG [Esorgebi] (Eterna round: R97, puzzle: Exclusion 3) | 403 nM | 131 nM |  |  | 
3 | GGACAGUCAGGAUAUACAUGAGGAUCACCCAUGUUGAGAUGUGAAAGGGCGGGAGUAGGUAGAAGGGACGAGAG [JR_Exclu3_Sub040] (puzzle: Exclusion 3) |  |  | 23.2 nM |  | 
4 | GGAGAGAAACAGGAUAUGGGAGGGAGGACCGGACCAGAAGGGUUGACAUGAGGAUCACCCAUGUAGAGAUCCUC [AK-MS2ROC-r4-exclusion6-6.7] (Eterna round: R97, puzzle: Exclusion 6) | 486 nM | 1700 nM |  |  | 
5 | GGAGAGAUAUAGGAUAUGGGAGGGAGGACCGGACCAGAAGGAUAGACAUGAGGAUCACCCAUGUAGAGAUCCUC [AK-MS2ROC-r4-exclusion6-6.1] (Eterna round: R97, puzzle: Exclusion 6) | 302 nM | 270 nM |  |  | 
6 | GGAGCGGAAGGAUAUGCUGCGGGAUUGAAUGGAAAGAAAAUACAUGAGGAUCACCCAUGUAGAAGGUCCGUGAA [Tiquxe] (puzzle: Exclusion 2) |  |  | 17 nM |  | 
7 | GGAUCACAUGUUAGGAUAUGCUGGUCCUUGGAUCAGCAGAAGGGACAUGAGGAUCACCCAUGUCAUGAAGAUCC [Eli bmx4 4.81] (Eterna round: R97, puzzle: Brourd's mod of Exclusion 4) | 52.8 nM | 24.1 nM |  |  | 
8 | GGAUCGAAUGUCAGGAUAUACCACUGGAUACAGUGGUAGAAGGGACAUGAGGAUCACCCAUGUGUUAUCGAUCC [Fiskers BMX 4 - 56] (puzzle: Brourd's mod of Exclusion 4) |  |  | 36.5 nM |  | 
9 | GGAUCGAAUGUGAGGAUAUACCUAUGGAAACAUAGGUAGAAGGCACAUGAGGAUCACCCAUGUCCAAACGGUCC [Mat - Exclusion 4 - Eli Mod - D13] (Eterna round: R97, puzzle: Brourd's mod of Exclusion 4) | 1050 nM | 225 nM |  |  | 
10 | GGAUCGAAUGUGAGGAUAUGCAGGUCCUUGGAUCUGCAGAAGGCACAUGAGGAUCACCCAUGUGAUCAAGAUCC [Mat - Exclusion 4 - Eli Mod - D48] (Eterna round: R97, puzzle: Brourd's mod of Exclusion 4) | 63 nM | 772 nM |  |  | 
11 | GGAUCGAAUGUGAGGAUAUGCUGGUCCUUGGAUCAGCAGAAGGCACAUGAGGAUCACCCAUGUGAUAUCGAUCC [Eli bmx4 4.71] (Eterna round: R97, puzzle: Brourd's mod of Exclusion 4) | 443 nM | 89.2 nM |  |  | 
12 | GGAUCGAGUGUGAGGAUAUACCACUGGAUACAGUGGUAGAAGGCACAUGAGGAUCACCCAUGUCCCUACGAUCC [Fiskers BMX 4 - 45] (puzzle: Brourd's mod of Exclusion 4) |  |  | 28.2 nM |  | 
13 | GGAUCUACUGAGGAUAUUACAUCACCCGAUUGAUAAGAAGGCAGAACAUGAGGAUCACCCAUGUGGGUAGCCAA [Polaris] (Eterna round: R97, puzzle: Exclusion 6) | 36.9 nM | 21 nM |  |  | 
14 | GGCACACAUGAGGAUCACCCAUGUGAGGAUAUUAGGCGAUCGUCGAAAGACGAUAGCCUGAGAAGGCACAUGCC [Eli x1 4.12] (Eterna round: R97, puzzle: Exclusion 1) | 92.2 nM | 19.8 nM |  |  | 
15 | GGCAUCGGAGGAUAUACUUAAGGUGAUGUUCGAAGCUUUCUACUUGAGGAUCACCCAAGUAGAAGGCCGAUGCC [jl-ex2.4.77 ViennaUCT mod] (Eterna round: R97, puzzle: Exclusion 2) | 7.63 nM | 19.6 nM |  |  | 
16 | GGCCCGGGAGGAUAUACAAUGGGCUCGGGAAAUCGGGCUCGACAUGAGGAUCACCCAUGUAGAAGGCCCGGGCC [-36.5, -34.6 kcal A 24%, 4,0] (Eterna round: R97, puzzle: Exclusion 2) | 34 nM | 21.8 nM |  |  | 
17 | GGCCCGGGAGGAUAUACAUGAGGAUCACCCAUGUAGCCCGGCCCGAUCGGGCCGGGCUGUAGAAGGCCCGGGCC [-49.2, -46.3 kcal, 19% A] (Eterna round: R97, puzzle: Exclusion 3) | 16.9 nM | 13 nM |  |  | 
18 | GGCCCUAAGGUCAGAUCCACAAGCUUUUUGCUCGUUUUAACAUGAGGAUCACCCAUGUCUAGUGGAUCUGAUCCUCU [Sensor v3, turn-off variant 2 (MOD of Indiso v.4)] (puzzle: Sensor v3, turn-off variant 2) |  |  | 15.4 nM | 25.2 nM | 21.6 nM
19 | GGCCGUAAUAAGGAUAUCACUAGCCUCGGCUAGUGAGAAGGUAUUACAUGAGGAUCACCCAUGUGAUCAGGCCA [E6/3-B2] (Eterna round: R97, puzzle: Exclusion 6) | 862 nM | 160 nM |  |  | 
